Five molecules from US20150337049A1 (Genmab, published 2015) can be followed below.

The target of test [1] is T1, C1q (from 3% pooled human serum) (human, UniProt P02745 23-245; P02746 28-253; P02747 29-245).
T1 construct: Native C1q of pooled human serum, detected with rabbit anti-human C1q
In words: ELISA, antibody coated, 3% pooled human serum, anti-C1q detection. As for the experimental part:
Plates were washed and blocked with PBS supplemented with 0.025% Tween 20 and 0.1% gelatine. […] Detection was performed by addition of 1 mg/mL 2,2′-azino-bis(3-ethylbenzothiazoline-6-sulfonic acid) (ABTS; Roche, Mannheim, Germany) for about 30 min. The reaction was stopped by the addition of 100 μL 2% oxalic acid. Absorbance was measured at 405 nm in a microplate reader (Biotek, Winooski, Vt.). Log transformed data were analyzed by fitting sigmoidal dose-response curves with variable slope using GraphPad Prism software.

Test [2] has as its target T2, HER2 on HER2-positive AU565 cells (human, UniProt P04626 23-1255).
T2 construct: whole, on cells
In words: FACS, AU565 cells.

B1: bsIgG1-CD3×HER2-LFLEDA (IgG1-huCLB-T3/4×HER2-169 with L234F/L235E/D265A) (bispecific antibody)
heavy 1: EVQLVESGGGLVKPGGSLRLSCAASGFTFSSYGMFWVRQAPGKGLEWVATISRYSRYIYYPDSVKGRFTISRDNAKNSLYLQMNSLRAEDTAVYYCARRPLYGSSPDYWGQGTLVTVSSASTKGPSVFPLAPSSKSTSGGTAALGCLVKDYFPEPVTVSWNSGALTSGVHTFPAVLQSSGLYSLSSVVTVPSSSLGTQTYICNVNHKPSNTKVDKRVEPKSCDKTHTCPPCPAPEFEGGPSVFLFPPKPKDTLMISRTPEVTCVVVAVSHEDPEVKFNWYVDGVEVHNAKTKPREEQYNSTYRVVSVLTVLHQDWLNGKEYKCKVSNKALPAPIEKTISKAKGQPREPQVYTLPPSREEMTKNQVSLTCLVKGFYPSDIAVEWESNGQPENNYKTTPPVLDSDGSFLLYSKLTVDKSRWQQGNVFSCSVMHEALHNHYTQKSLSLSPGK
VL 1: EIVLTQSPATLSLSPGERATLSCSASSSVTYVHWYQQKPGQAPRLLIYDTSKLASGIPARFSGSGSGTDFTLTISSLEPEDFAVYYCFQGSGYPLTFGSGTKLEMR
heavy 2: QVQLVQSGAEVKKPGASVKVSCKASGYTFTNYGISWVRQAPGQGLEWMGWLSAYSGNTIYAQKLQGRVTMTTDTSTTTAYMELRSLRSDDTAVYYCARDRIVVRPDYFDYWGQGTLVTVSSASTKGPSVFPLAPSSKSTSGGTAALGCLVKDYFPEPVTVSWNSGALTSGVHTFPAVLQSSGLYSLSSVVTVPSSSLGTQTYICNVNHKPSNTKVDKRVEPKSCDKTHTCPPCPAPEFEGGPSVFLFPPKPKDTLMISRTPEVTCVVVAVSHEDPEVKFNWYVDGVEVHNAKTKPREEQYNSTYRVVSVLTVLHQDWLNGKEYKCKVSNKALPAPIEKTISKAKGQPREPQVYTLPPSREEMTKNQVSLTCLVKGFYPSDIAVEWESNGQPENNYKTTPPVLDSDGSFFLYSRLTVDKSRWQQGNVFSCSVMHEALHNHYTQKSLSLSPGK
VL 2: EIVLTQSPATLSLSPGERATLSCRASQSVSSYLAWYQQKPGQAPRLLIYDASNRATGIPARFSGSGSGTDFTLTISSLEPEDFAVYYCQQRSNWPRTFGQGTKVEIK
notes: also called huCLB-T3/4×HER2-LFLEDA; copies: 1 + 1 + 1 + 1
Regarding B1, the figures for the binding result in test [1] and in test [2] were “no binding (tested: coated at 7-30000 ng/mL)” and “binds”, respectively.

B2: bsIgG1-CD3×HER2-… (IgG1-huCLB-T3/4×HER2-169 with L234F/L235E/D265A/N297Q/P331S) (bispecific antibody)
heavy 1: EVQLVESGGGLVKPGGSLRLSCAASGFTFSSYGMFWVRQAPGKGLEWVATISRYSRYIYYPDSVKGRFTISRDNAKNSLYLQMNSLRAEDTAVYYCARRPLYGSSPDYWGQGTLVTVSSASTKGPSVFPLAPSSKSTSGGTAALGCLVKDYFPEPVTVSWNSGALTSGVHTFPAVLQSSGLYSLSSVVTVPSSSLGTQTYICNVNHKPSNTKVDKRVEPKSCDKTHTCPPCPAPEFEGGPSVFLFPPKPKDTLMISRTPEVTCVVVAVSHEDPEVKFNWYVDGVEVHNAKTKPREEQYQSTYRVVSVLTVLHQDWLNGKEYKCKVSNKALPASIEKTISKAKGQPREPQVYTLPPSREEMTKNQVSLTCLVKGFYPSDIAVEWESNGQPENNYKTTPPVLDSDGSFLLYSKLTVDKSRWQQGNVFSCSVMHEALHNHYTQKSLSLSPGK
VL 1: EIVLTQSPATLSLSPGERATLSCSASSSVTYVHWYQQKPGQAPRLLIYDTSKLASGIPARFSGSGSGTDFTLTISSLEPEDFAVYYCFQGSGYPLTFGSGTKLEMR
heavy 2: QVQLVQSGAEVKKPGASVKVSCKASGYTFTNYGISWVRQAPGQGLEWMGWLSAYSGNTIYAQKLQGRVTMTTDTSTTTAYMELRSLRSDDTAVYYCARDRIVVRPDYFDYWGQGTLVTVSSASTKGPSVFPLAPSSKSTSGGTAALGCLVKDYFPEPVTVSWNSGALTSGVHTFPAVLQSSGLYSLSSVVTVPSSSLGTQTYICNVNHKPSNTKVDKRVEPKSCDKTHTCPPCPAPEFEGGPSVFLFPPKPKDTLMISRTPEVTCVVVAVSHEDPEVKFNWYVDGVEVHNAKTKPREEQYQSTYRVVSVLTVLHQDWLNGKEYKCKVSNKALPASIEKTISKAKGQPREPQVYTLPPSREEMTKNQVSLTCLVKGFYPSDIAVEWESNGQPENNYKTTPPVLDSDGSFFLYSRLTVDKSRWQQGNVFSCSVMHEALHNHYTQKSLSLSPGK
VL 2: EIVLTQSPATLSLSPGERATLSCRASQSVSSYLAWYQQKPGQAPRLLIYDASNRATGIPARFSGSGSGTDFTLTISSLEPEDFAVYYCQQRSNWPRTFGQGTKVEIK
As to B2, the binding result in test [1] is given as “no binding (tested: coated at 7-30000 ng/mL)”; in test [2] it was “binds”.

B3: bsIgG1-CD3×HER2-N297Q (IgG1-huCLB-T3/4×HER2-169 with N297Q) (bispecific antibody)
heavy 1: not shown
VL 1: EIVLTQSPATLSLSPGERATLSCSASSSVTYVHWYQQKPGQAPRLLIYDTSKLASGIPARFSGSGSGTDFTLTISSLEPEDFAVYYCFQGSGYPLTFGSGTKLEMR
heavy 2: not shown
VL 2: EIVLTQSPATLSLSPGERATLSCRASQSVSSYLAWYQQKPGQAPRLLIYDASNRATGIPARFSGSGSGTDFTLTISSLEPEDFAVYYCQQRSNWPRTFGQGTKVEIK
notes: also called NQ
With B3, the binding result in test [1] was “no binding (tested: coated at 7-30000 ng/mL)”; in test [2], “binds”.

B4: bsIgG1-CD3×HER2-LFLEPS (IgG1-huCLB-T3/4×HER2-169 with L234F/L235E/P331S) (bispecific antibody)
heavy 1: EVQLVESGGGLVKPGGSLRLSCAASGFTFSSYGMFWVRQAPGKGLEWVATISRYSRYIYYPDSVKGRFTISRDNAKNSLYLQMNSLRAEDTAVYYCARRPLYGSSPDYWGQGTLVTVSSASTKGPSVFPLAPSSKSTSGGTAALGCLVKDYFPEPVTVSWNSGALTSGVHTFPAVLQSSGLYSLSSVVTVPSSSLGTQTYICNVNHKPSNTKVDKRVEPKSCDKTHTCPPCPAPEFEGGPSVFLFPPKPKDTLMISRTPEVTCVVVDVSHEDPEVKFNWYVDGVEVHNAKTKPREEQYNSTYRVVSVLTVLHQDWLNGKEYKCKVSNKALPASIEKTISKAKGQPREPQVYTLPPSREEMTKNQVSLTCLVKGFYPSDIAVEWESNGQPENNYKTTPPVLDSDGSFLLYSKLTVDKSRWQQGNVFSCSVMHEALHNHYTQKSLSLSPGK
VL 1: EIVLTQSPATLSLSPGERATLSCSASSSVTYVHWYQQKPGQAPRLLIYDTSKLASGIPARFSGSGSGTDFTLTISSLEPEDFAVYYCFQGSGYPLTFGSGTKLEMR
heavy 2: QVQLVQSGAEVKKPGASVKVSCKASGYTFTNYGISWVRQAPGQGLEWMGWLSAYSGNTIYAQKLQGRVTMTTDTSTTTAYMELRSLRSDDTAVYYCARDRIVVRPDYFDYWGQGTLVTVSSASTKGPSVFPLAPSSKSTSGGTAALGCLVKDYFPEPVTVSWNSGALTSGVHTFPAVLQSSGLYSLSSVVTVPSSSLGTQTYICNVNHKPSNTKVDKRVEPKSCDKTHTCPPCPAPEFEGGPSVFLFPPKPKDTLMISRTPEVTCVVVDVSHEDPEVKFNWYVDGVEVHNAKTKPREEQYNSTYRVVSVLTVLHQDWLNGKEYKCKVSNKALPASIEKTISKAKGQPREPQVYTLPPSREEMTKNQVSLTCLVKGFYPSDIAVEWESNGQPENNYKTTPPVLDSDGSFFLYSRLTVDKSRWQQGNVFSCSVMHEALHNHYTQKSLSLSPGK
VL 2: EIVLTQSPATLSLSPGERATLSCRASQSVSSYLAWYQQKPGQAPRLLIYDASNRATGIPARFSGSGSGTDFTLTISSLEPEDFAVYYCQQRSNWPRTFGQGTKVEIK
As for B4, the binding result was “no binding (tested: coated at 7-30000 ng/mL)” in test [1] and “binds” in test [2].

B5: bsIgG1-CD3×HER2-LFLENQ (IgG1-huCLB-T3/4×HER2-169 with L234F/L235E/N297Q) (bispecific antibody)
heavy 1: EVQLVESGGGLVKPGGSLRLSCAASGFTFSSYGMFWVRQAPGKGLEWVATISRYSRYIYYPDSVKGRFTISRDNAKNSLYLQMNSLRAEDTAVYYCARRPLYGSSPDYWGQGTLVTVSSASTKGPSVFPLAPSSKSTSGGTAALGCLVKDYFPEPVTVSWNSGALTSGVHTFPAVLQSSGLYSLSSVVTVPSSSLGTQTYICNVNHKPSNTKVDKRVEPKSCDKTHTCPPCPAPEFEGGPSVFLFPPKPKDTLMISRTPEVTCVVVDVSHEDPEVKFNWYVDGVEVHNAKTKPREEQYQSTYRVVSVLTVLHQDWLNGKEYKCKVSNKALPAPIEKTISKAKGQPREPQVYTLPPSREEMTKNQVSLTCLVKGFYPSDIAVEWESNGQPENNYKTTPPVLDSDGSFLLYSKLTVDKSRWQQGNVFSCSVMHEALHNHYTQKSLSLSPGK
VL 1: EIVLTQSPATLSLSPGERATLSCSASSSVTYVHWYQQKPGQAPRLLIYDTSKLASGIPARFSGSGSGTDFTLTISSLEPEDFAVYYCFQGSGYPLTFGSGTKLEMR
heavy 2: QVQLVQSGAEVKKPGASVKVSCKASGYTFTNYGISWVRQAPGQGLEWMGWLSAYSGNTIYAQKLQGRVTMTTDTSTTTAYMELRSLRSDDTAVYYCARDRIVVRPDYFDYWGQGTLVTVSSASTKGPSVFPLAPSSKSTSGGTAALGCLVKDYFPEPVTVSWNSGALTSGVHTFPAVLQSSGLYSLSSVVTVPSSSLGTQTYICNVNHKPSNTKVDKRVEPKSCDKTHTCPPCPAPEFEGGPSVFLFPPKPKDTLMISRTPEVTCVVVDVSHEDPEVKFNWYVDGVEVHNAKTKPREEQYQSTYRVVSVLTVLHQDWLNGKEYKCKVSNKALPAPIEKTISKAKGQPREPQVYTLPPSREEMTKNQVSLTCLVKGFYPSDIAVEWESNGQPENNYKTTPPVLDSDGSFFLYSRLTVDKSRWQQGNVFSCSVMHEALHNHYTQKSLSLSPGK
VL 2: EIVLTQSPATLSLSPGERATLSCRASQSVSSYLAWYQQKPGQAPRLLIYDASNRATGIPARFSGSGSGTDFTLTISSLEPEDFAVYYCQQRSNWPRTFGQGTKVEIK
As for B5, the binding result was “no binding (tested: coated at 7-30000 ng/mL)” in test [1] and “binds” in test [2].
